Data as given in patent US20150374794A1 (Novo Nordisk, published 2015).
Numbered stars: 1 amine (or outer) side, 2 acyl side, 3 side chain; on linkers, the order of the positions; unused ones are H or OH. Square brackets hold non-standard residues; d marks the D form. Side chains are listed from the residue outwards. Ends that are not written are not given here. * marks the point of attachment. C18 diacid = O=C(O)CCCCCCCCCCCCCCCCC(=O)*; γGlu = O=C(O)[C@H](CCC(=O)[*:2])N[*:1]; Ac4c = NC1(C(=O)O)CCC1; AEEA = NCCOCCOCC(=O)O; Aib = CC(C)(N)C(=O)O

B1: N^ε16-[(4S)-4-carboxy-4-[[2-[2-[2-[[2-[2-[2-[[(4S)-4-carboxy-4-[[(4S)-4-carboxy-4-(17-carboxyheptadecanoylamino)butanoyl]amino]butanoyl]amino]ethoxy]ethoxy]acet … (peptide)
peptide: H[Aib]HGTFTSDLSKYLEK([γGlu-AEEA-AEEA-γGlu-γGlu-C18 diacid])RRAREFVAWLLST-NH2
modifications: N-terminus assumed
SMILES: CC(C)C[C@H](NC(=O)[C@H](Cc1c[nH]c2ccccc12)NC(=O)[C@H](C)NC(=O)[C@@H](NC(=O)[C@H](Cc1ccccc1)NC(=O)[C@H](CCC(=O)O)NC(=O)[C@H](CCCNC(=N)N)NC(=O)[C@H](C)NC(=O)[C@H](CCCNC(=N)N)NC(=O)[C@H](CCCNC(=N)N)NC(=O)[C@H](CCCCNC(=O)CC[C@H](NC(=O)COCCOCCNC(=O)COCCOCCNC(=O)CC[C@H](NC(=O)CC[C@H](NC(=O)CCCCCCCCCCCCCCCCC(=O)O)C(=O)O)C(=O)O)C(=O)O)NC(=O)[C@H](CCC(=O)O)NC(=O)[C@H](CC(C)C)NC(=O)[C@H](Cc1ccc(O)cc1)NC(=O)[C@H](CCCCN)NC(=O)[C@H](CO)NC(=O)[C@H](CC(C)C)NC(=O)[C@H](CC(=O)O)NC(=O)[C@H](CO)NC(=O)[C@@H](NC(=O)[C@H](Cc1ccccc1)NC(=O)[C@@H](NC(=O)CNC(=O)[C@H](Cc1c[nH]cn1)NC(=O)C(C)(C)NC(=O)[C@@H](N)Cc1c[nH]cn1)[C@@H](C)O)[C@@H](C)O)C(C)C)C(=O)N[C@@H](CC(C)C)C(=O)N[C@@H](CO)C(=O)N[C@H](C(N)=O)[C@@H](C)O
B2: N^ε28-[(4S)-4-carboxy-4-[[(4S)-4-carboxy-4-[[2-[2-[2-[[2-[2-[2-[[(4S)-4-carboxy-4-[[(4S)-4-carboxy-4-(17-carboxyheptadecanoylamino)butanoyl]amino]butanoyl]amino … (peptide)
peptide: H[Ac4c]QGTFTSDLSKYLESRRAREFVQWLLK([γGlu-γGlu-AEEA-AEEA-γGlu-γGlu-C18 diacid])T-NH2
modifications: N-terminus assumed
SMILES: CC(C)C[C@H](NC(=O)[C@H](Cc1ccc(O)cc1)NC(=O)[C@H](CCCCN)NC(=O)[C@H](CO)NC(=O)[C@H](CC(C)C)NC(=O)[C@H](CC(=O)O)NC(=O)[C@H](CO)NC(=O)[C@@H](NC(=O)[C@H](Cc1ccccc1)NC(=O)[C@@H](NC(=O)CNC(=O)[C@H](CCC(N)=O)NC(=O)C1(NC(=O)[C@@H](N)Cc2c[nH]cn2)CCC1)[C@@H](C)O)[C@@H](C)O)C(=O)N[C@@H](CCC(=O)O)C(=O)N[C@@H](CO)C(=O)N[C@@H](CCCNC(=N)N)C(=O)N[C@@H](CCCNC(=N)N)C(=O)N[C@@H](C)C(=O)N[C@@H](CCCNC(=N)N)C(=O)N[C@@H](CCC(=O)O)C(=O)N[C@@H](Cc1ccccc1)C(=O)N[C@H](C(=O)N[C@@H](CCC(N)=O)C(=O)N[C@@H](Cc1c[nH]c2ccccc12)C(=O)N[C@@H](CC(C)C)C(=O)N[C@@H](CC(C)C)C(=O)N[C@@H](CCCCNC(=O)CC[C@H](NC(=O)CC[C@H](NC(=O)COCCOCCNC(=O)COCCOCCNC(=O)CC[C@H](NC(=O)CC[C@H](NC(=O)CCCCCCCCCCCCCCCCC(=O)O)C(=O)O)C(=O)O)C(=O)O)C(=O)O)C(=O)N[C@H](C(N)=O)[C@@H](C)O)C(C)C

What was measured:
[1] = target: T1, human glucagon receptor (human, UniProt P47871 26-477); assay: cell-based or functional assay
T1 sequence (P47871 26-477): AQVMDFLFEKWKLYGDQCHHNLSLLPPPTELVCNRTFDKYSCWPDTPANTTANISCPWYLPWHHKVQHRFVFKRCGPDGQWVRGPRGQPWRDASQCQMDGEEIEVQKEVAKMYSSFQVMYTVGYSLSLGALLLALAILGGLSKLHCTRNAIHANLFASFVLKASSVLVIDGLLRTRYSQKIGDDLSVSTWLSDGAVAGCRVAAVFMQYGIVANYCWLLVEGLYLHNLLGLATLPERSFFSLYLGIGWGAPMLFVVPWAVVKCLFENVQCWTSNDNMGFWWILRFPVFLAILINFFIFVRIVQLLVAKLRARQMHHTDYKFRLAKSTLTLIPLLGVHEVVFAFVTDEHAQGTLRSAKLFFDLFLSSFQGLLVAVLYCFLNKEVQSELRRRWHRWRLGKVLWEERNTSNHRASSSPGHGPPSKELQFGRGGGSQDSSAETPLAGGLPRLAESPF

[2] = target: T2, human GLP-1 receptor (human, UniProt P43220 24-463); assay: displacement of 125I-GLP-1(7-36)NH2, membranes with human GLP-1R, SPA
T2 construct: whole, on cells; the potency assay used whole cells (clone FCW467-12A/KZ10-1)
Procedure: (§1) The receptor binding of each compound to the human GLP-1 receptor was measured in a displacement binding assay. […] Each derivative was added in a series of concentrations to isolated membranes containing the human GLP-1 receptor and displacement of the labelled ligand was monitored. The receptor binding was reported as the concentration at which half of the labelled ligand was displaced from the receptor, the IC₅₀ value.

[3] = target: T1, human glucagon receptor; assay: displacement of 125I-glucagon, membranes with human glucagon receptor, SPA
Procedure: as §1, with “human glucagon” for “human GLP-1”, “ligand is” for “ligand was”

[4] = target: T2, human GLP-1 receptor; assay: cell-based or functional assay

| Binder | EC50 GlucR, CRE luciferase reporter gene assay in BHK cells [1] [pM] | IC50 [2] [pM] | IC50 [3] [pM] | EC50 GLP-1R, CRE luciferase reporter gene assay in BHK cells [4] [pM] |
| --- | --- | --- | --- | --- |
| H[Ac4c]QGTFTSDLSKYLESKRAREFVQWLLK([γGlu-γGlu-Ser-Glu-Ser-γGlu-γGlu-C18 diacid])T-NH2 | 5 | 300 | 600 | – |
| H[Ac4c]QGTFTSDLSKYLESKRAREFVQWLLK([Gly-Ser-Glu-Gly-Ser-γGlu-γGlu-C18 diacid])T-NH2 | 4 | 200 | 600 | – |
| B1 | 6.8 | 3900 | 1900 | 32.7 |
| H[Aib]QGTFTSDLSKYLDLRRAQDFVQWLLK([γGlu-γGlu-Ser-Glu-Ser-γGlu-γGlu-C18 diacid])T-NH2 | 7 | 1900 | – | 11 |
| H[Aib]QGTFTSDLSKYLESKRAREFVQWLLK([Gly-Ser-Glu-Gly-Ser-γGlu-γGlu-C18 diacid])T-NH2 | – | 200 | 5100 | 5.7 |
| B2 | 11 | 300 | – | 6 |
